Here are results for one molecule from PMC11374688.

The target in experiment [1] is S. pombe Ubc4(C21S/C107S) (S. pombe) (UniProt P46595).
Experiment [2] has as its target Ub(T): S. pombe Ub residues 1–74 extended with Gly–PSAN (Ub-PSAN), as cyanomethyldithioacetal in the complexes (S. pombe) (UniProt P0CG72).

S. pombe Ubc4(C21S/C107S) (S. pombe), sequence (P46595 whole entry C21S/C107S, the tested form may be a part): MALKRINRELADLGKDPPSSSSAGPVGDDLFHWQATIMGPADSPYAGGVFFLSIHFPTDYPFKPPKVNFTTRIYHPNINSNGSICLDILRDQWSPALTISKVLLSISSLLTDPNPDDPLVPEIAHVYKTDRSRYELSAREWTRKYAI
UniProt P0CG72, sequence (P0CG72 1-74, one chain of several): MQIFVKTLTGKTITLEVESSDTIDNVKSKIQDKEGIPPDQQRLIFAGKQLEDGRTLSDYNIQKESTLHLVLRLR

B1: S. pombe Pub2^HECT (295–671) F640A (domain or fragment)
chain: DEYQRKIAYMYDRPEMAVNDAQLQLKVSRATTFEDAYDIISKLSVSDMKKKLLIRFRNEDGLDYGGVSREFFYILSHAIFNPGYSLFEYATDDNYGLQISPLSSVNPDFRSYFRFVGRVMGLAIYHRRYLDVQFVLPFYKRILQKPLCLEDVKDVDEVYYESLKWIKNNDVDESLCLNFSVEENRFGESVTVDLIPNGRNIAVNNQNKMNYLKALTEHKLVTSTEEQFNALKGGLNELIPDSVLQIFNENELDTLLNGKRDIDVQDWKRFTDYRSYTETDDIVIWFWELLSEWSPEKKAKLLQFATGTSRLPLSGFKDMHGSDGPRKFTIEKVGHISQLPKAHTCANRLDIPPYNSKEELEQKLTIAIQETAGFGTE
With B1, the E2~Ub(T)-to-E3^HECT pulse–chase transthiolation, fold loss of activity against wild type in experiment [1] and in experiment [2] was 30 fold in each case.
